Laboratory results from publication PMC11417369, “DNA sequence and chromatin differentiate sequence-specific transcription factor binding in the human malaria parasite Plasmodium falciparum”.

T1: SIP2 D1 (Plasmodium falciparum, UniProt C6KSN9 177-235)
T1 sequence: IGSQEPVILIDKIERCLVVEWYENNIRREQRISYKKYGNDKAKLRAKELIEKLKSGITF


Assays:
[1] = biological target: T1, SIP2 D1; experiment: gcPBM; about 25 ug protein; PBS, 1% milk, 0.2 mg/ml BSA, salmon testes DNA, 0.03% Triton X-100; conditions: tags: N-terminal GST (pGEX-4T-1), kept; label: surface-attached array probe
[2] = biological target: AP2-I D3 (Plasmodium falciparum, UniProt Q8IJW6 910-1027); experiment: as above; conditions: tags: N-terminal GST (pGEX-4T-1), kept; label: surface-attached array probe

| Binder | binding signal [1] | binding signal [2] |
| --- | --- | --- |
| GTGCAC_negctrl_site563 (dsDNA) DNA 1: ATTCAATAATTGTTTTTTTTCTTTTTGTTTTTGTTT DNA 2: AAACAAAAACAAAAAGAAAAAAAACAATTATTGAAT | 6.64 ln median PBM intensity, better of two orientations | 6.85 ln median PBM intensity, better of two orientations |
| GTGCAC_negctrl_site217 (dsDNA) DNA 1: TGACTTTGTTGAATTTGTCCTCTTAACTCATAATAT DNA 2: ATATTATGAGTTAAGAGGACAAATTCAACAAAGTCA | 6.72 ln median PBM intensity, better of two orientations | 7.06 ln median PBM intensity, better of two orientations |
| GTGCAC_negctrl_site258 (dsDNA) DNA 1: AATATTTTGTTATTTATTTAATCTAATATTATGATA DNA 2: TATCATAATATTAGATTAAATAAATAACAAAATATT | 6.61 ln median PBM intensity, better of two orientations | 6.98 ln median PBM intensity, better of two orientations |
| GTGCAC_negctrl_site384 (dsDNA) DNA 1: TTATAATGAAATATATTCTTATTCTTTTTTTTTTTT DNA 2: AAAAAAAAAAAAGAATAAGAATATATTTCATTATAA | 6.7 ln median PBM intensity, better of two orientations | 7.14 ln median PBM intensity, better of two orientations |
| GTGCAC_negctrl_site647 (dsDNA) DNA 1: ATCAGTGATTAGGTTATATATAAAAATGAACTAATA DNA 2: TATTAGTTCATTTTTATATATAACCTAATCACTGAT | 6.8 ln median PBM intensity, better of two orientations | 7.28 ln median PBM intensity, better of two orientations |
| GTGCAC_negctrl_site688 (dsDNA) DNA 1: ATAATTATTTAATATATATATATTATTTCGAATGTT DNA 2: AACATTCGAAATAATATATATATATTAAATAATTAT |  | 7.24 ln median PBM intensity, better of two orientations |
| GTGCAC_negctrl_site660 (dsDNA) DNA 1: AATTAATTTATTTTATAAATAGTTAGATCGTCATAA DNA 2: TTATGACGATCTAACTATTTATAAAATAAATTAATT | 6.78 ln median PBM intensity, better of two orientations | 7.02 ln median PBM intensity, better of two orientations |
| GTGCAC_site10258 (dsDNA) DNA 1: GCGTGTGTACAATGAGTGCATATCTAAAGGGAAGAT DNA 2: ATCTTCCCTTTAGATATGCACTCATTGTACACACGC | 9.38 ln median PBM intensity, better of two orientations | 10 ln median PBM intensity, better of two orientations |
| GTGCAC_site9800 (dsDNA) DNA 1: AATCATATTAGTATGGTGCAATATATATATAAATAT DNA 2: ATATTTATATATATATTGCACCATACTAATATGATT | 9.96 ln median PBM intensity, better of two orientations | 12 ln median PBM intensity, better of two orientations |
| GTGCAC_negctrl_site292 (dsDNA) DNA 1: TTACGTATGTATTATGTTGTATATGAAATTAAAAAA DNA 2: TTTTTTAATTTCATATACAACATAATACATACGTAA |  | 7.28 ln median PBM intensity, better of two orientations |
| GTGCAC_negctrl_site353 (dsDNA) DNA 1: GAATATTTATGATGAACTATTAATTAATTTTACATA DNA 2: TATGTAAAATTAATTAATAGTTCATCATAAATATTC | 6.72 ln median PBM intensity, better of two orientations | 6.76 ln median PBM intensity, better of two orientations |
| GTGCAC_negctrl_site586 (dsDNA) DNA 1: ATATGATTATTATTATATAAATTATAAAGTCTAATA DNA 2: TATTAGACTTTATAATTTATATAATAATAATCATAT | 6.69 ln median PBM intensity, better of two orientations | 6.95 ln median PBM intensity, better of two orientations |
| GTGCAC_negctrl_site81 (dsDNA) DNA 1: TTTATTAGATAACGATAAACGAAAAAAAAAAAATAA DNA 2: TTATTTTTTTTTTTTCGTTTATCGTTATCTAATAAA | 6.8 ln median PBM intensity, better of two orientations | 7.19 ln median PBM intensity, better of two orientations |
| GTGCAC_negctrl_site349 (dsDNA) DNA 1: AAATAAAAATAAAATAAAATAAAATTAAATGGGAAT DNA 2: ATTCCCATTTAATTTTATTTTATTTTATTTTTATTT |  | 7.26 ln median PBM intensity, better of two orientations |
| GTGCAC_negctrl_site391 (dsDNA) DNA 1: TTTTTTATTTTAATGTATTATTTTTATGTAATATAT DNA 2: ATATATTACATAAAAATAATACATTAAAATAAAAAA | 6.72 ln median PBM intensity, better of two orientations | 7.14 ln median PBM intensity, better of two orientations |
| GTGCAC_negctrl_site608 (dsDNA) DNA 1: TAATGAGGAAAAAGTGTGTTAAGATTTTATAATTTA DNA 2: TAAATTATAAAATCTTAACACACTTTTTCCTCATTA |  | 7.28 ln median PBM intensity, better of two orientations |
| GTGCAC_negctrl_site43 (dsDNA) DNA 1: ATTTATAAAATATAATTACATTTTTAAATAATAAAA DNA 2: TTTTATTATTTAAAAATGTAATTATATTTTATAAAT | 6.72 ln median PBM intensity, better of two orientations | 7.13 ln median PBM intensity, better of two orientations |
| GTGCAC_negctrl_site84 (dsDNA) DNA 1: TTGAGCATAAAATTTGGAAACCTCAATCGGACAAAA DNA 2: TTTTGTCCGATTGAGGTTTCCAAATTTTATGCTCAA | 6.59 ln median PBM intensity, better of two orientations | 6.92 ln median PBM intensity, better of two orientations |
| GTGCAC_negctrl_site223 (dsDNA) DNA 1: AAAAGATTAAGTAGAATAATGTTCTTTCCCAACATA DNA 2: TATGTTGGGAAAGAACATTATTCTACTTAATCTTTT | 6.44 ln median PBM intensity, better of two orientations | 7.05 ln median PBM intensity, better of two orientations |

| Binder | binding signal [1] | binding signal [2] |
| --- | --- | --- |
| GTGCAC_negctrl_site665 (dsDNA) DNA 1: TTTTAAATCTTATATTCCCCACATAAATAGCTCTCT DNA 2: AGAGAGCTATTTATGTGGGGAATATAAGATTTAAAA | 6.72 ln median PBM intensity, better of two orientations | 7.16 ln median PBM intensity, better of two orientations |
| GTGCAC_site10664 (dsDNA) DNA 1: TATTCATATTTAAAGGTGCAATATTTATTTTGTACA DNA 2: TGTACAAAATAAATATTGCACCTTTAAATATGAATA | 9.97 ln median PBM intensity, better of two orientations | 11.2 ln median PBM intensity, better of two orientations |
| GTGCAC_negctrl_site567 (dsDNA) DNA 1: AATATAAACATAGATAGATAAATAAATAAATAAACA DNA 2: TGTTTATTTATTTATTTATCTATCTATGTTTATATT |  | 7.22 ln median PBM intensity, better of two orientations |
| GTGCAC_negctrl_site296 (dsDNA) DNA 1: ATTTAAAATAGAAGTTATATTTATATGGGTGAAAAA DNA 2: TTTTTCACCCATATAAATATAACTTCTATTTTAAAT |  | 7.29 ln median PBM intensity, better of two orientations |
| GTGCAC_negctrl_site108 (dsDNA) DNA 1: TTGTTTAACTTGTTAAATATAATGTATCTGTGGATA DNA 2: TATCCACAGATACATTATATTTAACAAGTTAAACAA | 6.74 ln median PBM intensity, better of two orientations | 7.12 ln median PBM intensity, better of two orientations |
| GTGCAC_negctrl_site721 (dsDNA) DNA 1: GTTTTAAAATTAAATATTATGGCATAATTCAAGAAA DNA 2: TTTCTTGAATTATGCCATAATATTTAATTTTAAAAC |  | 7.22 ln median PBM intensity, better of two orientations |
| GTGCAC_negctrl_site191 (dsDNA) DNA 1: TTTTAAATTGGAGTGGGCAGATTGATATTATTCTTC DNA 2: GAAGAATAATATCAATCTGCCCACTCCAATTTAAAA | 6.81 ln median PBM intensity, better of two orientations | 7.28 ln median PBM intensity, better of two orientations |
| GTGCAC_negctrl_site86 (dsDNA) DNA 1: ATTTTTTTATACAATTTTATATATTAAATATTATAA DNA 2: TTATAATATTTAATATATAAAATTGTATAAAAAAAT |  | 7.23 ln median PBM intensity, better of two orientations |
| GTGCAC_negctrl_site403 (dsDNA) DNA 1: TATTTCATCTTTTAAGAAGGTACCCATATGTCATAT DNA 2: ATATGACATATGGGTACCTTCTTAAAAGATGAAATA |  | 7.27 ln median PBM intensity, better of two orientations |
| GTGCAC_negctrl_site659 (dsDNA) DNA 1: TTGTTAATATGATAAAAGAGGAATATTCTCTTCCTA DNA 2: TAGGAAGAGAATATTCCTCTTTTATCATATTAACAA | 6.7 ln median PBM intensity, better of two orientations | 6.7 ln median PBM intensity, better of two orientations |
| GTGCAC_negctrl_site578 (dsDNA) DNA 1: TTTTATTTTATTCAATTTTTACTTTTATAAAAATAT DNA 2: ATATTTTTATAAAAGTAAAAATTGAATAAAATAAAA |  | 7.27 ln median PBM intensity, better of two orientations |
| GTGCAC_site9498 (dsDNA) DNA 1: ATTTGTGATTTGTGTGTGCACGTATTTACAGAACAA DNA 2: TTGTTCTGTAAATACGTGCACACACAAATCACAAAT | 9.78 ln median PBM intensity, better of two orientations | 10.7 ln median PBM intensity, better of two orientations |
| GTGCAC_negctrl_site529 (dsDNA) DNA 1: TTATTATATATGTTCACATAAATACATAAATATATA DNA 2: TATATATTTATGTATTTATGTGAACATATATAATAA |  | 7.24 ln median PBM intensity, better of two orientations |
| GTGCAC_negctrl_site277 (dsDNA) DNA 1: TTTTTTAAATATTATTTTTATGAGTAAATATATTAT DNA 2: ATAATATATTTACTCATAAAAATAATATTTAAAAAA |  | 7.22 ln median PBM intensity, better of two orientations |
| GTGCAC_negctrl_site106 (dsDNA) DNA 1: AAATAAAATAATTATAATACTAAAAATAATACATAA DNA 2: TTATGTATTATTTTTAGTATTATAATTATTTTATTT |  | 7.24 ln median PBM intensity, better of two orientations |
| GTGCAC_negctrl_site327 (dsDNA) DNA 1: GCACACATATAATTAAACATATATTTGTATTATTTT DNA 2: AAAATAATACAAATATATGTTTAATTATATGTGTGC |  | 7.22 ln median PBM intensity, better of two orientations |
| GTGCAC_negctrl_site458 (dsDNA) DNA 1: ATGTAATTATAAGATTAATATACATAATTATATGTA DNA 2: TACATATAATTATGTATATTAATCTTATAATTACAT | 6.75 ln median PBM intensity, better of two orientations | 7.02 ln median PBM intensity, better of two orientations |
| GTGCAC_negctrl_site8 (dsDNA) DNA 1: TTTTGTAGCAAAAAATAGGAAAAAAAAAAATTAAAT DNA 2: ATTTAATTTTTTTTTTTCCTATTTTTTGCTACAAAA |  | 7.26 ln median PBM intensity, better of two orientations |
